Experimental data published in patent USRE41461E1, “Purification, composition and specificity of Heparinase I, II, and III from Flavobacterium heparinum” (Massachusetts Institute of Technology, priority 1992, dated 2010).
“Also recorded” adds a separate entry of the source. Where two headings read alike, the source gives them in different places.

B1: Heparin lyase II: heparin lyase II (heparinase II, no EC number) purified to homogeneity from Flavobacterium heparinum (protein, UniProt C6XZB6 26-772, looked up)
Heparin and heparin-sulfate …: QTKADVVWKDVDGVSMPIPPKTHPRLYLREQQVPDLKNRMNDPKLKKVWADMIKMQEDWKPADIPEVKDFRFYFNQKGLTVRVELMALNYLMTKDPKVGREAITSIIDTLETATFKPAGDISRGIGLFMVTGAIVYDWCYDQLKPEEKTRFVKAFVRLAKMLECGYPPVKDKSIVGHASEWMIMRDLLSVGIAIYDEFPEMYNLAAGRFFKEHLVARNWFYPSHNYHQGMSYLNVRFTNDLFALWILDRMGAGNVFNPGQQFILYDAIYKRRPDGQILAGGDVDYSRKKPKYYTMPALLAGSYYKDEYLNYEFLKDPNVEPHCKLFEFLWRDTQLGSRKPDDLPLSRYSGSPFGWMIARTGWGPESVIAEMKVNEYSFLNHQHQDAGAFQIYYKGPLAIDAGSYTGSSGGYNSPHNKNFFKRTIAHNSLLIYDPKETFSSSGYGGSDHTDFAANDGGQRLPGKGWIAPRDLKEMLAGDFRTGKILAQGFGPDNQTPDYTYLKGDITAAYSAKVKEVKRSFLFLNLKDAKVPAAMIVFDKVVASNPDFKKFWLLHSIEQPEIKGNQITIKRTKNGDSGMLVNTALLPDAANSNITSIGGKGKDFWVFGTNYTNDPKPGTDEALERGEWRVEITPKKAAAEDYYLNVIQIADNTQQKLHEVKRIDGDKVVGVQLADRIVTFSKTSETVDRPFGFSVVGKGTFKFVMTDLLPGTWQVLKDGKILYPALSAKGDDGALYFEGTEGTYRFLR
B2: Heparin lyase III: heparin lyase III (heparitinase EC 4.2.2.8) purified to homogeneity from Flavobacterium heparinum (protein, UniProt Q59289 25-659, looked up)
Heparin-sulfate lyase: QSSSITRKDFDHINLEYSGLEKVNKAVAAGNYDDAAKALLAYYREKSKAREPDFSNAEKPADIRQPIDKVTREMADKALVHQFQPHKGYGYFDYGKDINWQMWPVKDNEVRWQLHRVKWWQAMALVYHATGDEKYAREWVYQYSDWARKNPLGLSQDNDKFVWRPLEVSDRVQSLPPTFSLFVNSPAFTPAFLMEFLNSYHQQADYLSTHYAEQGNHRLFEAQRNLFAGVSFPEFKDSPRWRQTGISVLNTEIKKQVYADGMQFELSPIYHVAAIDIFLKAYGSAKRVNLEKEFPQSYVQTVENMIMALISISLPDYNTPMFGDSWITDKNFRMAQFASWARVFPANQAIKYFATDGKQGKAPNFLSKALSNAGFYTFRSGWDKNATVMVLKASPPGEFHAQPDNGTFELFIKGRNFTPDAGVFVYSGDEAIMKLRNWYRQTRIHSTLTLDNQNMVITKARQNKWETGNNLDVLTYTNPSYPNLDHQRSVLFINKKYFLVIDRAIGEATGNLGVHWQLKEDSNPVFDKTKNRVYTTYRDGNNLMIQSLNADRTSLNEEEGKVSYVYNKELKRPAFVFEKPKKNAGTQNFVSIVYPYDGQKAPEISIRENKGNDFEKGKLNLTLTINGKQQLVLVP

How the values were obtained:
[1] = Heparin lyase activity assay (change of absorbance at 232 nm), heparan sulfate as substrate; assay type: biochemical; details: for Unit/mg (specific activity): final GPC-HPLC purification step, acting on heparan sulfate; for average number of sites acted at in the heparan sulfate polymer: final level of depolymerization, 24 h; for initial activity in six buffers (Tris-HCl, sodium phosphate, HEPES, MOPS, TES, BTP-HCl): 50 mM buffer at optimum pH; for temperature for maximum activity: 50 mM sodium phosphate at optimum pH, 15-55° C.; for optimum temperature (summary): activity greater at higher temperatures but stability reduced; for Vmax: optimized conditions; for pH optimum for activity: on heparan sulfate; for specific activity: purified lyase, toward heparan sulfate
Description: The spectrophotometer was adjusted to the optimum temperature of the particular lyase being assayed. […] A measured quantity of lyase was added, bringing the final volume to 400 μl and the cuvette was gently mixed. The microcuvette was then immediately returned to the spectrophotometer and the change of absorbance at 232 nm was measured at 10 seconds intervals over 3 min. […] The specific activity was then calculated by dividing the micromoles of product produced per minute by the milligrams of protein in the cuvette. […] G., and Linhardt, R. J. (1989) Carbohydr. Res. 190, 219-233. Protein concentration was measured by the Bradford assay, Bradford, M. M. (1976) Anal. Biochem. 72, 248-254, based on a bovine serum albumin standard curve. […] The activities of each lyase (I acting on heparin, II acting on both heparin and heparan sulfate, and III acting on heparan sulfate) were then determined at different pH values. The buffer giving optimum activity for each heparin lyase was selected by testing buffers with buffering capacity near the pH optima calculated in the previous experiments. These buffers were: Tris-HCl, sodium phosphate, HEPES, MOPS, TES, and BTP-CHl. […] The heparin lyase assay solutions were made by diluting enzyme in 50 mM sodium phosphate buffer adjusted to the appropriate pH as previously described. Heparin lyase activity was determined in each buffer. Activity was assayed both immediately after addition to each buffer and following incubation for 24 h at 37° C. The salt concentration for optimum activity was investigated. Sodium chloride, potassium chloride, and sodium and potassium acetate were used to differentiate between ionic strength and specific ion affects. […] The temperature was adjusted in a temperature-regulated spectrophotometer and equilibrated for 10 min before the assay was started. Michaelis-Menten constants were determined using the optimized conditions. The final absorbance value for total depolymerization was divided by 20 to find a value that represented 5% reaction completion. The purified lyase preparations were diluted so that 5% of total depolymerization would be reached only at the end of a 3-min assay. The reaction velocities at specific molar concentrations for each lyase and their substrates were used for kinetic analysis using EZ-FIT hyperbolic curve-fitting program of […]. (1988) Anal. Biochem. 174, 437-447). Substrate solutions were prepared from 50 mg/ml heparin and 40 mg/ml for heparan sulfate stock solutions. […] The amount of purified lyase used was sufficient for complete depolymerization of heparin or heparan sulfate substrates within 30 min. The initial rate of depolymerization of each polysaccharide was measured, the reaction was then continued for 24 h, and the final level of polysaccharide depolymerization was assessed by measuring the final absorbance at 232 nm and expressed as percent activity.

[2] = Heparin lyase activity: effect of divalent metals and added salt, substrate specificity (each lyase on its substrates); assay type: biochemical; details: for effect of calcium on activity (increase): 10 mM calcium chloride, 50 mM BTP-HCl; for effect of added salt on activity: increasing salt concentration, 0-500 mM
Description: The spectrophotometer was adjusted to the optimum temperature of the particular lyase being assayed. A 700 μl quartz microcuvette containing 400 μg of substrate in 50 mM sodium phosphate buffer (containing 100 mM sodium chloride for heparin lyase I) was thermally equilibrated. A measured quantity of lyase was added, bringing the final volume to 400 μl and the cuvette was gently mixed. The microcuvette was then immediately returned to the spectrophotometer and the change of absorbance at 232 nm was measured at 10 seconds intervals over 3 min. The activity was measured from the change of absorbance/unit time using an extinction coefficient of 3800 M^−1 for products. The specific activity was then calculated by dividing the micromoles of product produced per minute by the milligrams of protein in the cuvette. The molecular weights used for heparin, heparan sulfate, and the chondroitin sulfates were 14,000, 20,000 and 25,000, respectively, Rice, K. G., and Linhardt, R. J. (1989) Carbohydr. Res. 190, 219-233. Protein concentration was measured by the Bradford assay, Bradford, M. M. (1976) Anal. Biochem. 72, 248-254, based on a bovine serum albumin standard curve.
BTP-HCl buffer (50 mM) was prepared containing either 10 mM calcium chloride, 10 μM or 1 mM copper (II) chloride, 10 μM and 1 mM mercury (II) chloride, and 1 mM zinc (II) chloride. Each solution was adjusted to the optimum pH for the lyase being tested, and the activity of the heparin lyases was measured in the presence and absence of divalent metals.
The salt concentration for optimum activity was investigated. Sodium chloride, potassium chloride, and sodium and potassium acetate were used to differentiate between ionic strength and specific ion affects. Added salt concentrations varied between 0 and 500 mM and were prepared in 50 mM sodium phosphate buffer after which the pH was adjusted to each enzyme's optimum and the heparin lyase activity was measured.
Each heparin lyase was added to a solution of complex polysaccharides (1 mg/ml) under optimized assay conditions, and the reaction was monitored at 232 nm for 30 min. The amount of purified lyase used was sufficient for complete depolymerization of heparin or heparan sulfate substrates within 30 min. The initial rate of depolymerization of each polysaccharide was measured, the reaction was then continued for 24 h, and the final level of polysaccharide depolymerization was assessed by measuring the final absorbance at 232 nm and expressed as percent activity.

[3] = Isoelectric focusing on agarose gel; assay type: physicochemical; details: agarose IEF
Description: IEF gel electrophoresis was run on pre-cast agarose gels (85×100 mm). Two electrode wicks were wetted with 1M phosphoric acid (anolyte) and 1M sodium hydroxide (catholyte). Electrophoresis was at 5 watts for 5 min, then at 10 watts for 1 h until the voltage was constant at 1200 V. The gel was immediately fixed in 15% aqueous trichloroacetic acid, blotted and rinsed with water, dried overnight, stained by using Coomassie G-250, and destained.

[4] = Temperature stability of lyase activity; assay type: physicochemical; details: for time in which 80% of activity was lost: protein 650 ng/ml
Description: Lyase assay stock solutions were prepared in the appropriate buffer and placed in water baths at the following temperatures: heparin lyase I at 30° C., heparin lyase II at 35° C., and heparin lyase III at both 35° and 40° C. […]

[5] = Activity remaining after incubation in buffers for 24 h at 37° C.; assay type: physicochemical
Description: The buffer giving optimum activity for each heparin lyase was selected by testing buffers with buffering capacity near the pH optima calculated in the previous experiments. These buffers were: Tris-HCl, sodium phosphate, HEPES, MOPS, TES, and BTP-CHl. Each buffer was prepared at 50 mM, and its pH was adjusted with hydrochloric acid or sodium hydroxide to 6.9 for heparin lyase II acting on heparin, 7.15 for heparin lyase I, 7.3 for heparin lyase II acting on heparan sulfate, and 7.6 for heparin lyase III. The heparin lyase assay solutions were made by diluting enzyme in 50 mM sodium phosphate buffer adjusted to the appropriate pH as previously described. Heparin lyase activity was determined in each buffer. Activity was assayed both immediately after addition to each buffer and following incubation for 24 h at 37° C.

[6] = heparan sulfate, II: 35° C., pH 6.9, III: 35° C., pH 7.6, value ± standard error, read-out: Km(app)
[7] = heparan sulfate, value ± standard error
[8] = with heparan sulfate, read-out: Km (Michelis-Menton constant, summary)

| Molecule | Unit/mg (specific activity) [1] [Unit/mg] | average number of sites acted at in the heparan sulfate polymer [1] [sites] | initial activity in six buffers (Tris-HCl, sodium phosphate, HEPES, MOPS, TES, BTP-HCl) ([1]; heparan sulfate) | temperature for maximum activity ([1]; heparan sulfate) [°C] | Km [1, 6] [µM] | optimum temperature (summary) ([1]; heparan sulfate) [°C] | Vmax [1, 7] [μmol/min mg protein] | pH optimum for activity [1] | specific activity [1] [units/mg] | Km (Michelis-Menton constant, summary) ([1]; with heparan sulfate) [mg/mL] | V(max) (summary) ([1]; with heparan sulfate) | Km [1, 8] [µM] | substrates acted on [2] | effect of calcium on activity (increase) [2] | effect of added salt on activity [2] | pI (isoelectric point) [3] | further results |
| --- | --- | --- | --- | --- | --- | --- | --- | --- | --- | --- | --- | --- | --- | --- | --- | --- | --- |
| B1 | 36.5 | 25 | marked reduction of activity in MOPS, TES, and HEPES | 40 | 11.2 ± 2.18 | 35 | 28.6 ± 1.26 | 6.9 | 36.5 | 0.869 | 46.95 | 43.4 | act on both heparin and heparan sulfate | dramatically reduced | decrease in activity; also recorded: decreases | around 8.9 | initial rate on heparan sulfate relative to heparin [1]: 1.7 times; effect of divalent metal ions on activity (all metals tested) ([2]; acting on both heparin and heparan sulfate): inhibition by all of the metals tested except for 10 μM copper; effect of added salt on activity ([2]; listed as heparinase II): not observed; pI (isoelectric point) ([3]; listed as heparin lyase II): 8.9-9.1; activity retained ([4]; 25 h at 35° C., protein 1-2 μg/ml, on both heparin and heparan sulfate): 70%; retention of activity after incubation ([5]; MOPS, TES, and HEPES, toward both heparin and heparan sulfate): 30-70% |
| B2 | 63.5 | 20 | only slight differences in activity | 45 | 29.4 ± 3.16 | 35 | 141 ± 3.88 | 7.6 | 63.5 | 0.780 | 277.01 | 110 | acts only on heparan sulfate | 20% | decrease in activity; also recorded: decreases | ~9.2 | effect of copper on activity ([2]; 10 μM copper (II) chloride): unaffected; effect of mercury on activity ([2]; 10 μM mercury (II) chloride): unaffected; effect of copper on activity ([2]; 1 mM copper (II) chloride): inhibited; effect of mercury on activity ([2]; 1 mM mercury (II) chloride): inhibited; effect of zinc on activity ([2]; 1 mM zinc (II) chloride): inhibited; effect of added salt on activity ([2]; listed as heparinase III): not observed; pI (isoelectric point) ([3]; listed as heparin lyase III): 9.9-10.1; time in which 80% of activity was lost ([4]; 35° C.): 3.5 h; time in which 80% of activity was lost ([4]; 40° C.): 0.5 h; retention of activity after incubation ([5]; MOPS and HEPES): 15-30% |
